Data published in paper PMC10786891, “Massively parallel profiling of RNA-targeting CRISPR-Cas13d”.
Substitutions are numbered along the chain they refer to. In names and notes the source's numbering stands.

T1: EsCas13d, nuclease-dead (Eubacterium siraeum, UniProt B0MS50, R295A;H300A;R849A;H854A)
T1 sequence: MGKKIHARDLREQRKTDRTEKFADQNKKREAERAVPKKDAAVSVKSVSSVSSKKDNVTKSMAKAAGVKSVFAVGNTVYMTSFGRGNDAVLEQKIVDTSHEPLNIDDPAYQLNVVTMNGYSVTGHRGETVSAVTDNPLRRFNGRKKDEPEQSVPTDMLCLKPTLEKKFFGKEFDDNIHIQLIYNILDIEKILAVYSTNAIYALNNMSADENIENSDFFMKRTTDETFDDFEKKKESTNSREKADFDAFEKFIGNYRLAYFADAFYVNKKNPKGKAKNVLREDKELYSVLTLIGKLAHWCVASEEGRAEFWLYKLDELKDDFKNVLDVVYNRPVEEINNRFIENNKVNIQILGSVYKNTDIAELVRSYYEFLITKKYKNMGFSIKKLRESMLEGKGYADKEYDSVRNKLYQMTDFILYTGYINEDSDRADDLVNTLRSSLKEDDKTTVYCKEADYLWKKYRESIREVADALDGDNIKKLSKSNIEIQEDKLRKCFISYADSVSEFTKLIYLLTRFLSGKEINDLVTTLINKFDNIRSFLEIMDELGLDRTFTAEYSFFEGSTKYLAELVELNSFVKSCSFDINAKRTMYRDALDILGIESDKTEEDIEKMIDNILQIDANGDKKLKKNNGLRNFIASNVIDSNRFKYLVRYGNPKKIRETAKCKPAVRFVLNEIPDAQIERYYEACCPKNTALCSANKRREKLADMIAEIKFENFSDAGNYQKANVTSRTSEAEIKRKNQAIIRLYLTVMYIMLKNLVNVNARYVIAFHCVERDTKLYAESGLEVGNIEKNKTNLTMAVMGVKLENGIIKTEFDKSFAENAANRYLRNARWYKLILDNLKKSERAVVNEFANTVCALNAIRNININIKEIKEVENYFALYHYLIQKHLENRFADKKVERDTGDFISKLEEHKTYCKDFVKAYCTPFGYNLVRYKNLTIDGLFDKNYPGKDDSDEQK

B1: target 1 MT 5'PFS GCU 3'PFS UGC (mixed)
RNA 1: CACCCGUGCAAAAAUGCAGGGGUCUAAAACUGAGCGGAUAACCUCUCUAUGG
RNA 2: GGGAAUGGAUCCACAUCUACGAAUUCGCUCCAUAGAGAGGUUAUCCGCUCAUGCAGAUCGGAAGAGCACACGU
B2: target 1 MT 5'PFS UCA 3'PFS UGU (mixed)
RNA 1: B1 RNA 1
RNA 2: B1 RNA 2 with G27U, U29A, C54U
B3: target 1 MT 5'PFS CUU 3'PFS AAA (mixed)
RNA 1: B1 RNA 1
RNA 2: B1 RNA 2 with G27C, C28U, U52A, G53A, C54A
B4: target 1 MT 5'PFS GGG 3'PFS ACC (mixed)
RNA 1: B1 RNA 1
RNA 2: B1 RNA 2 with C28G, U29G, U52A, G53C
B5: target 1 MT 5'PFS GUC 3'PFS UUU (mixed)
RNA 1: B1 RNA 1
RNA 2: B1 RNA 2 with C28U, U29C, G53U, C54U
B6: target 1 MT 5'PFS GGA 3'PFS CAU (mixed)
RNA 1: B1 RNA 1
RNA 2: B1 RNA 2 with C28G, U29A, U52C, G53A, C54U
B7: target 1 MT 5'PFS CUU 3'PFS UCU (mixed)
RNA 1: B1 RNA 1
RNA 2: B1 RNA 2 with G27C, C28U, G53C, C54U
B8: target 1 insC 3' of 16,insA 3' of 4 (mixed)
RNA 1: B1 RNA 1
RNA 2: GGGAAUGGAUCCACAUCUACGAAUUCGUACCAUAGACGAGGUUAUCCGCAUCACCGAGAUCGGAAGAGCACACGU
B9: target 1 MT 5'PFS UGC 3'PFS CCU (mixed)
RNA 1: B1 RNA 1
RNA 2: B1 RNA 2 with G27U, C28G, U29C, U52C, G53C, C54U
B10: target 1 MT 5'PFS UGC 3'PFS CCC (mixed)
RNA 1: B1 RNA 1
RNA 2: B1 RNA 2 with G27U, C28G, U29C, U52C, G53C
B11: target 1 MT 5'PFS UGC 3'PFS CCG (mixed)
RNA 1: B1 RNA 1
RNA 2: B1 RNA 2 with G27U, C28G, U29C, U52C, G53C, C54G
B12: target 1 MT 5'PFS GUC 3'PFS UUA (mixed)
RNA 1: B1 RNA 1
RNA 2: B1 RNA 2 with C28U, U29C, G53U, C54A
B13: target 1 MT 5'PFS GCU 3'PFS GCU (mixed)
RNA 1: B1 RNA 1
RNA 2: B1 RNA 2 with U52G, G53C, C54U
B14: target 1 MT 5'PFS ACA 3'PFS UGU (mixed)
RNA 1: B1 RNA 1
RNA 2: B1 RNA 2 with G27A, U29A, C54U
B15: target 1 MT 5'PFS CUU 3'PFS ACU (mixed)
RNA 1: B1 RNA 1
RNA 2: B1 RNA 2 with G27C, C28U, U52A, G53C, C54U
B16: target 1 MT 5'PFS GAC 3'PFS AGC (mixed)
RNA 1: B1 RNA 1
RNA 2: B1 RNA 2 with C28A, U29C, U52A
B17: target 1 MT 5'PFS UUG 3'PFS ACU (mixed)
RNA 1: B1 RNA 1
RNA 2: B1 RNA 2 with G27U, C28U, U29G, U52A, G53C, C54U
B18: target 1 MT 5'PFS GAC 3'PFS AGA (mixed)
RNA 1: B1 RNA 1
RNA 2: B1 RNA 2 with C28A, U29C, U52A, C54A
B19: target 1 C6G,G13A (mixed)
RNA 1: B1 RNA 1
RNA 2: B1 RNA 2 with C28U, U29A, G39A, C46G, U52C, G53C, C54G
B20: target 1 MT 5'PFS ACA 3'PFS UGA (mixed)
RNA 1: B1 RNA 1
RNA 2: B1 RNA 2 with G27A, U29A, C54A
B21: target 1 MT 5'PFS GGG 3'PFS AAG (mixed)
RNA 1: B1 RNA 1
RNA 2: B1 RNA 2 with C28G, U29G, U52A, G53A, C54G
B22: target 1 MT 5'PFS GAC 3'PFS AGU (mixed)
RNA 1: B1 RNA 1
RNA 2: B1 RNA 2 with C28A, U29C, U52A, C54U
B23: target 1 MT 5'PFS GGG 3'PFS AAC (mixed)
RNA 1: B1 RNA 1
RNA 2: B1 RNA 2 with C28G, U29G, U52A, G53A
B24: target 1 MT 5'PFS CUU 3'PFS ACA (mixed)
RNA 1: B1 RNA 1
RNA 2: B1 RNA 2 with G27C, C28U, U52A, G53C, C54A
B25: target 1 MT 5'PFS GGC 3'PFS UAU (mixed)
RNA 1: B1 RNA 1
RNA 2: B1 RNA 2 with C28G, U29C, G53A, C54U
B26: target 1 MT 5'PFS GUA 3'PFS CGG (mixed)
RNA 1: B1 RNA 1
RNA 2: B1 RNA 2 with C28U, U29A, U52C, C54G
B27: target 1 MT 5'PFS GAA 3'PFS AUC (mixed)
RNA 1: B1 RNA 1
RNA 2: B1 RNA 2 with C28A, U29A, U52A, G53U
B28: target 1 MT 5'PFS GUA 3'PFS CGC (mixed)
RNA 1: B1 RNA 1
RNA 2: B1 RNA 2 with C28U, U29A, U52C
B29: target 1 MT 5'PFS GUA 3'PFS CGA (mixed)
RNA 1: B1 RNA 1
RNA 2: B1 RNA 2 with C28U, U29A, U52C, C54A
B30: target 1 complement block 6-12 (mixed)
RNA 1: B1 RNA 1
RNA 2: GGGAAUGGAUCCACAUCUACGAAUUCGUACCAUAGAGAGCAAUAGGGCUCACCGAGAUCGGAAGAGCACACGU
B31: target 1 MT 5'PFS UGU 3'PFS CGA (mixed)
RNA 1: B1 RNA 1
RNA 2: B1 RNA 2 with G27U, C28G, U52C, C54A
B32: target 1 MT 5'PFS GGC 3'PFS UAC (mixed)
RNA 1: B1 RNA 1
RNA 2: B1 RNA 2 with C28G, U29C, G53A
B33: target 1 MT 5'PFS GGC 3'PFS UAA (mixed)
RNA 1: B1 RNA 1
RNA 2: B1 RNA 2 with C28G, U29C, G53A, C54A
B34: target 1 MT 5'PFS GGC 3'PFS UAG (mixed)
RNA 1: B1 RNA 1
RNA 2: B1 RNA 2 with C28G, U29C, G53A, C54G
B35: target 1 MT 5'PFS CUC 3'PFS UCG (mixed)
RNA 1: B1 RNA 1
RNA 2: B1 RNA 2 with G27C, C28U, U29C, G53C, C54G
B36: target 1 MT 5'PFS GUA 3'PFS CGU (mixed)
RNA 1: B1 RNA 1
RNA 2: B1 RNA 2 with C28U, U29A, U52C, C54U
B37: target 1 MT 5'PFS GAA 3'PFS AUU (mixed)
RNA 1: B1 RNA 1
RNA 2: B1 RNA 2 with C28A, U29A, U52A, G53U, C54U
B38: target 1 MT 5'PFS CUC 3'PFS UCA (mixed)
RNA 1: B1 RNA 1
RNA 2: B1 RNA 2 with G27C, C28U, U29C, G53C, C54A
B39: target 1 MT 5'PFS CCU 3'PFS UAU (mixed)
RNA 1: B1 RNA 1
RNA 2: B1 RNA 2 with G27C, G53A, C54U
B40: target 1 MT 5'PFS GUA 3'PFS AGU (mixed)
RNA 1: B1 RNA 1
RNA 2: B1 RNA 2 with C28U, U29A, U52A, C54U

target: T1, EsCas13d, nuclease-dead; test: crRNA (strand 1, pre-loaded); Mg2+; 40 mM Tris-HCl pH 7.5, 150 mM NaCl, 6 mM MgCl2, 1 mM DTT, 0.1% Tween-20, 0.2 mg/ml BSA; 25 C; 10 min per concentration, then washed; settings: tags: His6-TwinStrep-SUMO cleaved; N-terminal SNAP kept (SNAP-Surface 488); label: 3' end held by stalled T7 RNA polymerase

| Binder | Kd [nM] |
| --- | --- |
| B1 | 38 ± 7 |
| B2 | 28.5 ± 5 |
| B3 | ~70 |
| B4 | 25.5 ± 8.5 |
| B5 | 15.1 ± 4.3 |
| B6 | 50.5 ± 18 |
| B7 | 30.5 ± 9 |
| B8 | 38 ± 17 |
| B9 | 15.5 ± 4.5 |
| B10 | ~23 |
| B11 | 11.8 ± 3.85 |
| B12 | 12.2 ± 2.45 |
| B13 | 17 ± 5 |
| B14 | 45 ± 12 |
| B15 | 29.5 ± 10.5 |
| B16 | 13.6 ± 2.6 |
| B17 | 21 ± 5 |
| B18 | 28 ± 14 |
| B19 | 10.1 ± 0.7 |
| B20 | 15.5 ± 4.5 |

| Binder | Kd [nM] |
| --- | --- |
| B21 | 23.9 ± 3.25 |
| B22 | 35.5 ± 10.5 |
| B23 | 35.5 ± 8.5 |
| B24 | ~65.5 |
| B25 | 16 ± 4 |
| B26 | 15.2 ± 1.15 |
| B27 | 43 ± 15 |
| B28 | 11.2 ± 1.15 |
| B29 | 17.8 ± 2.55 |
| B30 | 16.7 ± 1 |
| B31 | 60 ± 28.5 |
| B32 | 19 ± 5 |
| B33 | 20.9 ± 3.75 |
| B34 | 13.4 ± 1.8 |
| B35 | ~85 |
| B36 | 5.66 ± 0.48 |
| B37 | 24.5 ± 8.5 |
| B38 | ~26 |
| B39 | ~15 |
| B40 | 9.9 ± 0.8 |
